Data: patent US20250346643A1, “TROPOMYOSIN KINASE RECEPTOR (TRK) LIGANDS AS THERAPEUTICS TO SUPPORT LIVER REGENERATION” (Vanderbilt University, priority 2024, published 2025)

How the values were obtained:
[1] = tested on: hepatocytic differentiated human ductal organoids; experiment: EdU incorporation in hepatocytic differentiated human ductal organoids (HDO); format: cell-based; settings: for EdU+ cells compared to vehicle only: 20 ng/ml, 6 hours, William's E without L-glutamine (FIG. 19A-B)
Protocol: Human ductal organoids. The normal human liver tissue was obtained through the Cooperative Human Tissue Network (CHTN) at Vanderbilt University Medical Center. The liver was cut into very small pieces in liver digestion medium (Gibco, Waltham, MA; 17703-034). The cell suspension was filtered through a 100-μm cell strainer. The flow through was then centrifuged for 2 min at 100 g, 4° C., and the cell pellet resuspended in ice-cold DMEM (Gibco, Waltham, MA; 11885-084, supplemented by 5% FBS) and centrifuged for 2 min at 300 g. The cell pellet was gently resuspended in Matrigel® (Corning, Corning, NY; 356231) and a […] dome plated in a 24-well plate. The plate was incubated for 10-15 min at 37° C. After solidifying, complete HepatiCult™ Organoid Initiation Medium (OIM) (STEMCELL Technologies, Vancouver, Canada; 100-0384) was added. For passaging, the Matrigel dome was dissociated using TrypLE (Thermo Fisher Scientific, Waltham, MA; 12604013) and incubated at 37° C. for 5 mins. Organoids were washed by resuspending in advanced DMEM/F12 and consecutive resuspension of the organoid pellet. Organoids were resuspended at a 1:10 dilution in Matrigel® and cultured in complete HepatiCult™ Organoid Growth Medium (OGM) (STEMCELL Technologies, Vancouver, Canada; 100-0385) for organoid expansion. For hepatocytic differentiation of hepatic ductal organoids, culture medium was changed to complete HepatiCult™ Organoid Differentiation Medium (ODM) (STEMCELL Technologies, 100-0383) 4 days after passaging. Vehicle, NTF3, BDNF, HGF (20 ng/ml final concentration) or Taletrectinib (Fisher Scientific, Waltham, MA; 502030245, final concentration 10 nM) or torin2 (Fisher Scientific, Waltham, MA; s2817, final concentration 25 nM) were diluted in William's E (without L-glutamine) and added to organoids.
EdU incorporation and imaging in HDO and mpPHH. A chamber slide was pre-chilled on ice and coated with Matrigel®. Chamber slide was then incubated for 3 min at 37° C. to solidify and organoids plated in 0.02% Matrigel®/complete media into coated chamber slides. Organoids were grown in complete organoid growth media (OGM) for approximately 4 days followed by incubation in organoid differentiation media (ODM) for another 4 days. Organoids were changed to William's E medium 1 day prior to experiment. Vehicle or NTF3, BDNF, HGF (20 ng/ml final concentration each) or Taletrectinib (Fisher Scientific, Waltham, MA; 502030245, final concentration 10 nM) were diluted in William's E (without L-glutamine) and added to organoids. CLICK-iT™ EdU (EdU final concentration […] incubated together with the vehicle, NTF3, BDNF or HGF). After 6 hours, organoids were fixed with 4% paraformaldehyde and permeabilized with 0.5% Triton-X 100. Further processing was performed according to CLICK-ITT EdU manufacturer's instructions. mpPHHs were seeded on collagen coated chamber slides and grown in complete hepatocyte medium (Lonza, Basel, Switzerland). Prior to EdU incorporation assays, mpPHHs were cultured in William's E medium. Vehicle or NTF3, BDNF, HGF (20 ng/ml final concentration each) or Taletrectinib (Fisher Scientific, Waltham, MA; 502030245, final concentration 10 nM) were diluted in William's E (without L-glutamine) and added to mpPHHs. Organoids were imaged in PBS in chamber slides, mpHHs were mounted with fluoromount. Five to fifteen images of random high-power fields were obtained per experiment per treatment and EdU+/Hoechst 33342+ nuclei versus all Hoechst 33342+ nuclei quantified.

[2] = tested on: mouse passaged primary human hepatocytes; experiment: EdU incorporation in mouse passaged primary human hepatocytes (mpPHH); format: cell-based; settings: 20 ng/ml each, 4 hours (FIG. 19E-F)
Protocol: Mouse passaged primary human hepatocytes. Mouse-passaged primary human hepatocytes (mpPHHs) were collected as previously described (Michailidis et al., Proc Natl Acad Sci USA. 2020; 117(3): 1678-1688) and cultured in hepatocyte culture media (CC-3198, Lonza, Basel, Switzerland) in collagen-coated chamber slides. Three days before treatment, mpPHH were incubated in William's E media (with L-glutamine). Vehicle, NTF3, BDNF, or HGF (20 ng/ml each) were diluted in William's E (without L-glutamine) and EdU (EdU Cell Proliferation kit, Alexa Flour 555, Thermo Fisher Scientific, Waltham, MA; C10638) was added to each well. mpPHH were incubated for 4 hours and the experiment terminated by fixing the mpPHH in 4% paraformaldehyde/PFA and permeablized with Triton X-100. Click-iT™ EdU staining was then performed according to the manufacturer's instructions. mpPHH were mounted with Flouromount G and imaged with Nikon confocal microscope. 5-15 images per treatment per experiment were randomly taken and EdU positive nuclei quantified.
EdU incorporation and imaging in HDO and mpPHH. A chamber slide was pre-chilled on ice and coated with Matrigel®. Chamber slide was then incubated for 3 min at 37° C. to solidify and organoids plated in 0.02% Matrigel®/complete media into coated chamber slides. Organoids were grown in complete organoid growth media (OGM) for approximately 4 days followed by incubation in organoid differentiation media (ODM) for another 4 days. Organoids were changed to William's E medium 1 day prior to experiment. Vehicle or NTF3, BDNF, HGF (20 ng/ml final concentration each) or Taletrectinib (Fisher Scientific, Waltham, MA; 502030245, final concentration 10 nM) were diluted in William's E (without L-glutamine) and added to organoids. CLICK-iT™ EdU (EdU final concentration […] incubated together with the vehicle, NTF3, BDNF or HGF). […] Five to fifteen images of random high-power fields were obtained per experiment per treatment and EdU+/Hoechst 33342+ nuclei versus all Hoechst 33342+ nuclei quantified.

For “NTF3: neurotrophin-3, recombinant protein; HSC-derived hepatocyte mitogen, ligand of TRKA, TRKB, TRKC”, which “EdU+ cells compared to vehicle only” value [1] is on record?
Its value is “significantly increased EdU+ cells”.

What about the “EdU+ cells compared to vehicle alone, taletrectinib experiment” value ([1]; NTF3 20 ng/ml (FIG. 19C-D)) of the same molecule?
Its value is “significant increase of EdU+ cells”.

What about the “EdU+ nuclei compared to vehicle only” value [2] of the same molecule?
The value was “increased EdU+ nuclei”.

B1: BDNF: brain-derived neurotrophic factor, neurotrophin specific for TrkB (protein)
chain: HSDPARRGELSVCDSISEWVTAADKKTAVDMSGGTVTVLEKVPVSKGQLKQYFYETKCNPMGYTKEGCRGIDKRHWNSQCRTTQSYVRALTMDSKKRIGWRFIRIDTSCVCTLTIKRGR
For B1, which “EdU+ cells compared to vehicle only” value [1] is on record?
The value was “significantly increased EdU+ cells”.

And the “EdU+ nuclei compared to vehicle only” value [2]?
The value was “increased EdU+ nuclei”.

B2: HGF: hepatocyte growth factor, complete hepatocyte mitogen used as comparator (protein, UniProt Q08048 33-495; Q08048 496-728, looked up)
Hepatocyte growth factor …: QKKRRNTLHEFKKSAKTTLTKEDPLLKIKTKKVNSADECANRCIRNRGFTFTCKAFVFDKSRKRCYWYPFNSMSSGVKKGFGHEFDLYENKDYIRNCIIGKGGSYKGTVSITKSGIKCQPWNSMIPHEHSFLPSSYRGKDLQENYCRNPRGEEGGPWCFTSNPEVRYEVCDIPQCSEVECMTCNGESYRGPMDHTESGKTCQRWDQQTPHRHKFLPERYPDKGFDDNYCRNPDGKPRPWCYTLDPDTPWEYCAIKTCAHSAVNETDVPMETTECIQGQGEGYRGTSNTIWNGIPCQRWDSQYPHKHDITPENFKCKDLRENYCRNPDGAESPWCFTTDPNIRVGYCSQIPKCDVSSGQDCYRGNGKNYMGNLSKTRSGLTCSMWDKNMEDLHRHIFWEPDASKLNKNYCRNPDDDAHGPWCYTGNPLIPWDYCPISRCEGDTTPTIVNLDHPVISCAKTKQLR
Hepatocyte growth factor beta …: VVNGIPTQTTVGWMVSLKYRNKHICGGSLIKESWVLTARQCFPARNKDLKDYEAWLGIHDVHERGEEKRKQILNISQLVYGPEGSDLVLLKLARPAILDNFVSTIDLPSYGCTIPEKTTCSIYGWGYTGLINADGLLRVAHLYIMGNEKCSQHHQGKVTLNESELCAGAEKIGSGPCEGDYGGPLICEQHKMRMVLGVIVPGRGCAIPNRPGIFVRVAYYAKWIHKVILTYKL
With B2 as the molecule, how does the “EdU+ cells compared to vehicle only” value [1] read?
The value was “significantly increased EdU+ cells”.

And the “EdU+ nuclei compared to vehicle only” value [2]?
Its value is “increased EdU+ nuclei”.
